Reference: the Human Domainome abundance scans (Beltran et al. 2025)
± gives the uncertainty stated by the source.

B1: Cell division cycle and apoptosis regulator protein 1, residues 625 to 674; numbered along this chain, Q8IX12 (parent)
chain: ISTPTHWSKLDPKTMKVNDLRKELESRALSSKGLKSQLIARLTKQLKVEE
B2: Tripartite motif-containing protein 6, residues 93 to 134; numbered along this chain, Q9C030 (parent)
chain: KAVLCADHGEKLQLFCQEDGKVICWLCERSQEHRGHHTFLVE

Variants of: B1
Experiment: abundance fitness (aPCA) (normalised: wild type 0, dead -1); higher = more abundant; growth selection in yeast, the domain comes from the species named
Settings: Homo sapiens

In order of rising abundance fitness:
1. ISTPTHWSKLDPKTDKVNDLRKELESRALSSKGLKSQLIARLTKQLKVEE [M15D]  -0.775 ± 0.057
2. ISTPFHWSKLDPKTMKVNDLRKELESRALSSKGLKSQLIARLTKQLKVEE [T5F]  -0.772 ± 0.15
3. ISTPTHWSKLDQKTMKVNDLRKELESRALSSKGLKSQLIARLTKQLKVEE [P12Q]  -0.749 ± 0.062
4. ISTPTHWSKLDPKTMKVNDLRKEVESRALSSKGLKSQLIARLTKQLKVEE [L24V]  -0.685 ± 0.038
5. ISTPTHWSKLDPKTMKVNDLRKELESRALSSKGLKSQRIARLTKQLKVEE [L38R]  -0.583 ± 0.046
6. ISTPTHWSKGDPKTMKVNDLRKELESRALSSKGLKSQLIARLTKQLKVEE [L10G]  -0.562 ± 0.041
7. ISTPTHWSKLDPKTMKVNDLRPELESRALSSKGLKSQLIARLTKQLKVEE [K22P]  -0.491 ± 0.035
8. ISTPTHWSKCDPKTMKVNDLRKELESRALSSKGLKSQLIARLTKQLKVEE [L10C]  -0.338 ± 0.05
9. ISTPTHWSKLDPKTMKVNKLRKELESRALSSKGLKSQLIARLTKQLKVEE [D19K]  -0.33 ± 0.035
10. ISTPTHWSKLDPKTMKVNDLRKELESRALSSKGLKSQLIARLTVQLKVEE [K44V]  -0.31 ± 0.042
11. ISTPTHKSKLDPKTMKVNDLRKELESRALSSKGLKSQLIARLTKQLKVEE [W7K]  -0.142 ± 0.047
12. ISTPTWWSKLDPKTMKVNDLRKELESRALSSKGLKSQLIARLTKQLKVEE [H6W]  -0.135 ± 0.05
13. ISTPTHWSKLDPKTMKVNDLRKELESRALSSKGLKSQLIARLTKQLKCEE [V48C]  -0.113 ± 0.038
14. ISTPKHWSKLDPKTMKVNDLRKELESRALSSKGLKSQLIARLTKQLKVEE [T5K]  -0.111 ± 0.033
15. ISTPTCWSKLDPKTMKVNDLRKELESRALSSKGLKSQLIARLTKQLKVEE [H6C]  -0.065 ± 0.059
16. ISTTTHWSKLDPKTMKVNDLRKELESRALSSKGLKSQLIARLTKQLKVEE [P4T]  -0.035 ± 0.049
17. ISTPTHWSKLDPKTMKVNDLRKELESRALSSKGLKSQLIARLTKQLKFEE [V48F]  0.018 ± 0.074
18. FSTPTHWSKLDPKTMKVNDLRKELESRALSSKGLKSQLIARLTKQLKVEE [I1F]  0.207 ± 0.13
19. ISTPTHWSKLDPKKMKVNDLRKELESRALSSKGLKSQLIARLTKQLKVEE [T14K]  0.257 ± 0.041

Variants of: B2
Experiment: as above
Settings: Homo sapiens

In order of falling abundance fitness:
1. DAVLCADHGEKLQLFCQEDGKVICWLCERSQEHRGHHTFLVE [K1D]  0.292 ± 0.18
2. KMVLCADHGEKLQLFCQEDGKVICWLCERSQEHRGHHTFLVE [A2M]  0.264 ± 0.061
3. KGVLCADHGEKLQLFCQEDGKVICWLCERSQEHRGHHTFLVE [A2G]  0.198 ± 0.045
4. KEVLCADHGEKLQLFCQEDGKVICWLCERSQEHRGHHTFLVE [A2E]  0.195 ± 0.055
5. KTVLCADHGEKLQLFCQEDGKVICWLCERSQEHRGHHTFLVE [A2T]  0.136 ± 0.046
6. KKVLCADHGEKLQLFCQEDGKVICWLCERSQEHRGHHTFLVE [A2K]  0.133 ± 0.068
7. KAGLCADHGEKLQLFCQEDGKVICWLCERSQEHRGHHTFLVE [V3G]  0.127 ± 0.041
8. KACLCADHGEKLQLFCQEDGKVICWLCERSQEHRGHHTFLVE [V3C]  0.098 ± 0.13
9. KRVLCADHGEKLQLFCQEDGKVICWLCERSQEHRGHHTFLVE [A2R]  0.067 ± 0.047
10. KNVLCADHGEKLQLFCQEDGKVICWLCERSQEHRGHHTFLVE [A2N]  0.066 ± 0.27
11. KVVLCADHGEKLQLFCQEDGKVICWLCERSQEHRGHHTFLVE [A2V]  0.065 ± 0.051
12. KSVLCADHGEKLQLFCQEDGKVICWLCERSQEHRGHHTFLVE [A2S]  0.045 ± 0.063
13. EAVLCADHGEKLQLFCQEDGKVICWLCERSQEHRGHHTFLVE [K1E]  0 ± 0.055
14. KAALCADHGEKLQLFCQEDGKVICWLCERSQEHRGHHTFLVE [V3A]  -0.007 ± 0.054
15. YAVLCADHGEKLQLFCQEDGKVICWLCERSQEHRGHHTFLVE [K1Y]  -0.01 ± 0.17
16. KLVLCADHGEKLQLFCQEDGKVICWLCERSQEHRGHHTFLVE [A2L]  -0.013 ± 0.06
17. KIVLCADHGEKLQLFCQEDGKVICWLCERSQEHRGHHTFLVE [A2I]  -0.018 ± 0.12
18. KDVLCADHGEKLQLFCQEDGKVICWLCERSQEHRGHHTFLVE [A2D]  -0.031 ± 0.14
19. KWVLCADHGEKLQLFCQEDGKVICWLCERSQEHRGHHTFLVE [A2W]  -0.04 ± 0.052
20. KAELCADHGEKLQLFCQEDGKVICWLCERSQEHRGHHTFLVE [V3E]  -0.067 ± 0.09
21. KPVLCADHGEKLQLFCQEDGKVICWLCERSQEHRGHHTFLVE [A2P]  -0.071 ± 0.063
22. KAILCADHGEKLQLFCQEDGKVICWLCERSQEHRGHHTFLVE [V3I]  -0.135 ± 0.1
23. SAVLCADHGEKLQLFCQEDGKVICWLCERSQEHRGHHTFLVE [K1S]  -0.142 ± 0.11
24. KYVLCADHGEKLQLFCQEDGKVICWLCERSQEHRGHHTFLVE [A2Y]  -0.153 ± 0.11
25. MAVLCADHGEKLQLFCQEDGKVICWLCERSQEHRGHHTFLVE [K1M]  -0.156 ± 0.082
26. KCVLCADHGEKLQLFCQEDGKVICWLCERSQEHRGHHTFLVE [A2C]  -0.167 ± 0.089
27. VAVLCADHGEKLQLFCQEDGKVICWLCERSQEHRGHHTFLVE [K1V]  -0.191 ± 0.083
28. GAVLCADHGEKLQLFCQEDGKVICWLCERSQEHRGHHTFLVE [K1G]  -0.193 ± 0.043
29. TAVLCADHGEKLQLFCQEDGKVICWLCERSQEHRGHHTFLVE [K1T]  -0.255 ± 0.42
30. AAVLCADHGEKLQLFCQEDGKVICWLCERSQEHRGHHTFLVE [K1A]  -0.273 ± 0.17
31. NAVLCADHGEKLQLFCQEDGKVICWLCERSQEHRGHHTFLVE [K1N]  -0.296 ± 0.22
32. RAVLCADHGEKLQLFCQEDGKVICWLCERSQEHRGHHTFLVE [K1R]  -0.296 ± 0.053
33. QAVLCADHGEKLQLFCQEDGKVICWLCERSQEHRGHHTFLVE [K1Q]  -0.32 ± 0.23
34. KAHLCADHGEKLQLFCQEDGKVICWLCERSQEHRGHHTFLVE [V3H]  -0.349 ± 0.17
35. FAVLCADHGEKLQLFCQEDGKVICWLCERSQEHRGHHTFLVE [K1F]  -0.36 ± 0.2
36. LAVLCADHGEKLQLFCQEDGKVICWLCERSQEHRGHHTFLVE [K1L]  -0.439 ± 0.086
37. CAVLCADHGEKLQLFCQEDGKVICWLCERSQEHRGHHTFLVE [K1C]  -0.698 ± 0.2
38. WAVLCADHGEKLQLFCQEDGKVICWLCERSQEHRGHHTFLVE [K1W]  -0.722 ± 0.14
